This is an account of results in patent publication US20160002331A1.

Common to all, as to assay: cell-based or functional assay
The target in assay [1] is Notch1 receptor with L1601P mutation (MOLT-4 cells), P46531.
In assay [2] the target is Notch1 receptor with a 17 amino acid insertion at position 1740 (Jurkat cells), P46531.
Assay [3] addresses Notch1 receptor with L1594P/D1610V mutations (DND-41 cells), P46531.
In assay [4] the target is Notch1 receptor with L1594P mutation (ALL-SIL cells), P46531.
Notch1 receptor with L1594P mutation (ALL-SIL cells), P46531, sequence (P46531 19-2555, stated change not applied): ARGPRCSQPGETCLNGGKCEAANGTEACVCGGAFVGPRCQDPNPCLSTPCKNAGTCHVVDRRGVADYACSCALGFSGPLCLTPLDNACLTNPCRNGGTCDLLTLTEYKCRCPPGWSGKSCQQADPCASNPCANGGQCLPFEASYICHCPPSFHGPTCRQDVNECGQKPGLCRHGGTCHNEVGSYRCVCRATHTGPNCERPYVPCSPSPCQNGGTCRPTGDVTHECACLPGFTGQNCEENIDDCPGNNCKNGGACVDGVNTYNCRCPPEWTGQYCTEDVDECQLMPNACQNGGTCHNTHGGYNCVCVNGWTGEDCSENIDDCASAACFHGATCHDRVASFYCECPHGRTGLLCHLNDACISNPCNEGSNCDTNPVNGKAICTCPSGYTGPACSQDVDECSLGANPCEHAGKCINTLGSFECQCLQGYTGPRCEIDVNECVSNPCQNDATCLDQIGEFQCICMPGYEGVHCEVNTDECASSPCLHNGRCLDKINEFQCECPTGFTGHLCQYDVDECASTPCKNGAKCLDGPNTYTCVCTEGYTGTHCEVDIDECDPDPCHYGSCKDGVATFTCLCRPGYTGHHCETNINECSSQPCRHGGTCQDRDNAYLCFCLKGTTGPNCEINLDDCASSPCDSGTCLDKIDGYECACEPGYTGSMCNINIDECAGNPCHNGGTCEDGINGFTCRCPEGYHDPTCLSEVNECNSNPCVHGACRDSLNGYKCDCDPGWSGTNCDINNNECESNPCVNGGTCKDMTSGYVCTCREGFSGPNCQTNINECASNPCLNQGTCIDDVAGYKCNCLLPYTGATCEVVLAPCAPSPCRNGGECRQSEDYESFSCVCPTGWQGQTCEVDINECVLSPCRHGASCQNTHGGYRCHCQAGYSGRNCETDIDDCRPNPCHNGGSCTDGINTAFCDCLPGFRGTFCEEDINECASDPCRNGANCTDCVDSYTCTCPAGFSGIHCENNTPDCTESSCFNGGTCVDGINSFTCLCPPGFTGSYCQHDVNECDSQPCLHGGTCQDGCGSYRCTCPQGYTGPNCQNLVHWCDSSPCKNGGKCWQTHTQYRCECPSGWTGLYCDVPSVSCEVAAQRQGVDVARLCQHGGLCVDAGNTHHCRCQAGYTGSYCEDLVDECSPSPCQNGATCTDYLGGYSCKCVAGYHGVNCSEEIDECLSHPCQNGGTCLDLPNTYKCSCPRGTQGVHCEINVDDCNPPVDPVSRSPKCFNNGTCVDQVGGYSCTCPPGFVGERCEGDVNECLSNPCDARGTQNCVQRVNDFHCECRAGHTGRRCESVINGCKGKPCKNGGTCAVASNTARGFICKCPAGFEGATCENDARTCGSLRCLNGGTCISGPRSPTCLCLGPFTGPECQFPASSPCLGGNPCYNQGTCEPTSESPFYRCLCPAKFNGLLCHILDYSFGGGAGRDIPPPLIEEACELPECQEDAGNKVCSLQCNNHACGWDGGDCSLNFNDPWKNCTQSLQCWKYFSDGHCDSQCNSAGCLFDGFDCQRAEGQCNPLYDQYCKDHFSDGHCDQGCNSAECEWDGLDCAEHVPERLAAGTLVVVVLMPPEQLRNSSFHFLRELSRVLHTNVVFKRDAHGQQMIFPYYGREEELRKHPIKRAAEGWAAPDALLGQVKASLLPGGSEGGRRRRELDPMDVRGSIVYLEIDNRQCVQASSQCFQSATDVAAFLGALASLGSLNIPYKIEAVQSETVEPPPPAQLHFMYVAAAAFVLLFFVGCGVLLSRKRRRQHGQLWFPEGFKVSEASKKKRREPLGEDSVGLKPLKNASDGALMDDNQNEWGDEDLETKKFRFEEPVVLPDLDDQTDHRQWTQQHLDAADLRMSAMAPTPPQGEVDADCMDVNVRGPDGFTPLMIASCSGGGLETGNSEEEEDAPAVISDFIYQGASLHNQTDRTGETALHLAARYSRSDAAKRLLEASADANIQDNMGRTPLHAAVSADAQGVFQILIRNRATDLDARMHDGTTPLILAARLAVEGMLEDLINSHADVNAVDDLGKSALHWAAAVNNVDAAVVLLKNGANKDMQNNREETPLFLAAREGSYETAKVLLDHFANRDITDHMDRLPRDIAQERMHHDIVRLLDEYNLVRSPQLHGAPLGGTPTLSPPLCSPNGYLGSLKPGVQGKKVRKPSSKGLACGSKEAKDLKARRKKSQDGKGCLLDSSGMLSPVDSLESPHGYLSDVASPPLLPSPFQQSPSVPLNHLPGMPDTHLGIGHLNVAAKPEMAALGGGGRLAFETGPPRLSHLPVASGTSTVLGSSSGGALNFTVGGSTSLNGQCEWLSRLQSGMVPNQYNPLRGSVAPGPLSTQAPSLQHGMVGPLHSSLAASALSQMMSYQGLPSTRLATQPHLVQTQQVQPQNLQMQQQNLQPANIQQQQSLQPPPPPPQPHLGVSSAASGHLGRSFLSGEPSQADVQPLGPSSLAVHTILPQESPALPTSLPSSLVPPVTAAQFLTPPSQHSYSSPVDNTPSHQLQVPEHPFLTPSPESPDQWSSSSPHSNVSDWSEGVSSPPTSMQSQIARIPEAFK

Notch1 receptor with a 17 amino acid insertion at position 1740 (Jurkat cells), P46531, sequence (P46531 19-2555): as the sequence (P46531 19-2555, stated change not applied) above
Notch1 receptor with L1601P mutation (MOLT-4 cells), P46531, sequence (P46531 19-2555, stated change not applied): as above
Notch1 receptor with L1594P/D1610V mutations (DND-41 cells), P46531, sequence (P46531 19-2555, stated change not applied): as above

B1: rat 351-mIgG1 (antibody, V domains shown)
VH: EVQLVESGGGLVQPGRSLKVSCLASGFTFSHYGMNWIRQAPGKGLDWVASISRSGSYIRYVDTVKGRFTVSRDIAKNTLYLQMTSLRSEDTALYYCAREGQFGDYFEYWGQGVMVTVSS
VL: DIMLTQSPATLSVTPGERISLSCRASQKISTNLHWYQQKPNESPRILIKYASQTISGIPSRFSGSGSGTDFTLHINTVEPEDFSVYYCQQTNSWPLTFGSGTKLEIK
As for B1, in assay [1], the Normalized Notch1^ICD level, MOLT-4 cells, 0.01 µg/ml antibody (relative to untreated) was found to be 1.52; the Normalized Notch1^ICD level, MOLT-4 cells, 0.1 µg/ml antibody (relative to untreated) came to 0.751; the Normalized Notch1^ICD level, MOLT-4 cells, 1 µg/ml antibody (relative to untreated) is 0.284; the Normalized Notch1^ICD level, MOLT-4 cells, 10 µg/ml antibody (relative to untreated) is 0.082. In assay [2], this molecule came in with a Normalized Notch1^ICD level, Jurkat cells, 0.001 µg/ml antibody (relative to untreated) of 1.53; a Normalized Notch1^ICD level, Jurkat cells, 0.01 µg/ml antibody (relative to untreated) of 1.44; a Normalized Notch1^ICD level, Jurkat cells, 0.1 µg/ml antibody (relative to untreated) of 1.41; a Normalized Notch1^ICD level, Jurkat cells, 1 µg/ml antibody (relative to untreated) of 1.08. The molecule also displayed a Normalized Notch1^ICD level, Jurkat cells, 10 µg/ml antibody (relative to untreated) in assay [2] of 1.2. Besides, in assay [3], the Normalized Notch1^ICD level, DND-41 cells, 0.001 µg/ml antibody (relative to untreated) stood at 1.02; the Normalized Notch1^ICD level, DND-41 cells, 0.01 µg/ml antibody (relative to untreated) worked out at 0.988; the Normalized Notch1^ICD level, DND-41 cells, 0.1 µg/ml antibody (relative to untreated) was determined as 0.367; the Normalized Notch1^ICD level, DND-41 cells, 1 µg/ml antibody (relative to untreated) was 0.322. Moreover, in assay [3], the Normalized Notch1^ICD level, DND-41 cells, 10 µg/ml antibody (relative to untreated) turned out to be 0.219. Further, in assay [4], the Normalized Notch1^ICD level, ALL-SIL cells, 0.001 µg/ml antibody (relative to untreated) was found to be 0.982; the Normalized Notch1^ICD level, ALL-SIL cells, 0.01 µg/ml antibody (relative to untreated) stood at 0.712; the Normalized Notch1^ICD level, ALL-SIL cells, 0.1 µg/ml antibody (relative to untreated) was determined as 0.08; the Normalized Notch1^ICD level, ALL-SIL cells, 1 µg/ml antibody (relative to untreated) turned out to be 0.03. Moreover, the Normalized Notch1^ICD level, ALL-SIL cells, 10 µg/ml antibody (relative to untreated) in assay [4] stood at 0.019.
